# Biological target: recombinant GPIb
# Experiment: GPIb binding activity test of the purified product (format not described; FIG. 9)
binder,measurement,value
"recombinant Agkisacutacin (heterodimer snake venom protein, A chain and B chain, expressed in Pichia pastoris GS115) (protein) chain 1: DVDCLPGWSAYDQSCYRVFKLLKTWDDAEKFCTERPKGGHLVSIESAGERDFVAQLVSENKQTDNVWLGLKIQSKGQQCSTEWTDGSSVSYENFSEYQSKKCFVEKNTGFRTWLNLNCGSEYAFVCKSPP chain 2: GFCCPLRWSSYEGHCYLVVKEKKTWDDAEKFCTEQRKGGHLVSVHSREEADFLVHLAYPILDLSLIWMGLSNMWNDCKREWSDGTKLDFKAWAKTSDCLIGKTDDNQWLNMDCSKKHYFVCKFKL",Kd,100 nM

# Source: patent publication US20200048644A1
